Eight molecules from patent publication US20190225691A1 (SHANGHAI HENLIUS BIOTECH, published 2019) can be followed below.

Changes are numbered by the printed parent chain. Names may count otherwise.

The Kd is the constant that tells how readily two partners part at equilibrium. As usually defined, the koff is a measure of how fast the partners let go of each other. Broadly, the kon is the second-order rate constant of association. Broadly, the EC50 (read off the curve) is the concentration giving half of the maximal effect.

B1: PL2#3 mtIgG1 (N297A) (antibody, V domains shown)
VH: EVQLVQSGGGLVKPGGSLRLSCAASGFTFSSYTMNWVRQAPGKGLEWVSSISSGSDYLYYADSVKGRFTISRDNAKNSLYLQMNSLRAEDTAVYYCARNELRWYPQAGAFDRWGQGTMVTVSS
VL: QSVVTQPPSMSAAPGQRVTISCSGSSSYIESSYVGWYQQLPGTAPRLLIYDDDMRPSGIPDRFSGSKSGTSATLAITGLQTGDEADYYCEIWRSGLGGVFGGGTKLTVLS
notes: N297A mutant of human IgG1 Fc backbone
B2: PL3#7-19 mtIgG1 (antibody, V domains shown)
VH: QVQLVQSGAEVKKPGSSVKVSCKASGGTFSSYPISWVRQAPGQGLEWMGRIIPILGIANYAQKFQGRVTITADKSTSTAYMELSSLRSEDTAVYYCARSRDGYAFGAFDVWGQGTLVTVSS
VL: QSVVTQPPPVSGAPGQRVTISCTGSSSNIGGGYDVHWYQQLPGTAPKLLIYGNSTRPSGVPDRFSGSKSGTSASLAITGLQAEDEADYYCQTYDSSLSATVVFGGGTKLTVLG
modifications: Antibody was biotinylated (NHS-PEG4-biotin, sites not specified) for the Octet assay of Table 11.
notes: N297A mutant human IgG1; also called PL3#7-19 parental mtIgG1
B3: PL3#7-54 mtIgG1 (antibody, V domains shown)
VH: B2 VH with N59D, D101P, V110I
VL: B2 VL with G31Q, G52A, T55N, T100R
modifications: Antibody was biotinylated (NHS-PEG4-biotin, sites not specified) for the Octet assay of Table 11.
notes: N297A mutant human IgG1
B4: PL3#7-19 deglyco1 mtIgG1 (antibody, V domains shown)
VH: B2 VH
VL: B2 VL with T55N
notes: N297A mutant human IgG1; also called PL3#7-19 deglycol
B5: PL3#7-19 deglyco2 mtIgG1 (antibody, V domains shown)
VH: B2 VH
VL: B2 VL with N53Q
notes: N297A mutant human IgG1
B6: PL3#7-19 deglyco3 mtIgG1 (antibody, V domains shown)
VH: B2 VH
VL: B2 VL with T55Q
notes: N297A mutant human IgG1
B7: PL3#7-43 deglyco1 mtIgG1 (antibody, V domains shown)
VH: B2 VH with D101P, V110I
VL: B2 VL with I29V, G31A, T55N, L97G, T100R
notes: N297A mutant human IgG1; also called PL3#7-43 deglycol
B8: PL3#7-43 deglyco2 mtIgG1 (antibody, V domains shown)
VH: B2 VH with D101P, V110I
VL: B2 VL with I29V, G31A, T55Q, P57S, L97G, T100R
notes: N297A mutant human IgG1; also called PL3#7-43 deg1yco2

The target of the first experiment is T1, human PD-L1 ECD-His (human, UniProt Q9NZQ7 19-238).
T1 construct: extracellular domain; Analyte in all SPR and BLI runs; also called hPD-L1_ECD-His; hPD-L1 ECD-His; not shown: His tag
T1 sequence (Q9NZQ7 19-238): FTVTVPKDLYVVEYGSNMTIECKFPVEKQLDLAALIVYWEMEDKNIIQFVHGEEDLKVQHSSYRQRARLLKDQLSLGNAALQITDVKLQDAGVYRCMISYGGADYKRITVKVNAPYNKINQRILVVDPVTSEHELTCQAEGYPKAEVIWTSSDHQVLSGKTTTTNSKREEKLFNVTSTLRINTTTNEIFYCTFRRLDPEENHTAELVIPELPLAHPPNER
Briefly: SPR, ratio of KD to ref-1. In general terms: Surface plasmon resonance follows binding to a sensor surface in real time, without labels.
As to B1, the “Improvement over ref-1” value was 2.86 fold.

The next experiment deals with T1, human PD-L1 ECD-His. The experiment in a line: BLI, ratio of KD to ref-1. As for the experimental part: (§1) Briefly, black 96-well plate was prepared with columns containing 200 μL/well of reagents required for determination of affinity. In general, Octet SA sensors were first placed in wells containing 1×Kinetics Buffer (PBS, 0.1% BSA, 0.02% Tween-20, pH 7.4) for 180 seconds to establish a baseline. […] Sensors were then regenerated by 3×5 second incubations in Regeneration Buffer (10 mM Glycine, pH 1.5) followed by a 5 second incubation in 1×Kinetics Buffer each time. Regeneration was repeated before measurement of each association/dissociation cycle. Sensors were then placed in fresh 1×Kinetics Buffer for 180 seconds to establish a baseline. Association was then measured by incubating the sensors for 5 minutes in wells containing hPD-L1-His followed by transferring to wells containing 1×Kinetics Buffer for 10 minutes to measure dissociation. Kinetics (ka, kd, and […] were measured by global fitting four association/dissociation cycles of data obtained from 1:3 serial dilutions of hPD-L1-His from 38.28 nM to 1.42 nM (one association/dissociation cycle for one concentration) with a 1:1 Langmuir binding model. All data were analyzed with Octet Data Analysis Software v.9.0 and representative of two independent experiments performed in duplicate.
(§2) All the data are representative of two independent experiments performed in duplicate.
On the technique in general: In BLI a coated tip is dipped into the sample, and binding shifts an interference pattern.
Regarding B1, the “Improvement over ref-1” value stood at 1 fold.

B2: the “Improvement over ref-1” value was 4.57 fold.

Take B3: the “Improvement over ref-1” value was 3.19 fold.

Another experiment addresses T1, human PD-L1 ECD-His. Briefly: BLI, ratio of KD to parental PL3#7-19. As for the experimental part:
(§3) Briefly, black 96-well plate was prepared with columns containing 200 μL/well of reagents required for determination of affinity. In general, Octet anti-human-Fc sensors were first placed in wells containing 1×Kinetics Buffer (PBS, 0.1% BSA, 0.02% Tween-20, pH 7.4) for 180 seconds to establish a baseline. Sensors were then transferred to wells containing […] anti-PD-L1 variants for 600 seconds to load the anti-human-Fc tips. Sensors were then placed in fresh 1×Kinetics Buffer for 180 seconds to establish a baseline. Association was then measured by incubating the sensors for 3 minutes in wells containing hPD-L1-His followed by transferring to wells containing 1×Kinetics Buffer for 10 minutes to measure dissociation. Sensors were then regenerated by 3X5 second incubations in Regeneration Buffer (10 mM Glycine, pH 1.5) followed by a 5 second incubation in 1×Kinetics Buffer each time. Regeneration was repeated before measurement of each association/dissociation cycle. […] All data were analyzed with Octet Data Analysis Software v.9.0 and representative of two independent experiments performed in duplicate.
as §2
For the molecule B4, the “Fold Difference (against parental variant)” value (shortened to “Fold Difference”) was determined as 1.48 fold.

Consider B5, for which the “Fold Difference” value worked out at 1.68 fold.

For the molecule B6, the “Fold Difference” value worked out at 1.74 fold.

On to B2, for which the “Fold Difference” value was 1 fold.

The next experiment deals with T1, human PD-L1 ECD-His. The experiment in a line: BLI, ratio of KD to parental PL3#7-43. As for the experimental part:
as §3, §2
As to B7, the “Fold Difference” value is 0.79 fold.

B8: the “Fold Difference” value turned out to be 0.87 fold.

The target in the next experiment is T1, human PD-L1 ECD-His. Briefly: SPR, hPD-L1-His, comparison of IgG isotypes of PL2#3.
The molecule B1 yielded a Kd of 221 pM, an off-rate constant (koff) of 0.000286 s⁻¹ and a kon of 1.33e+06 M⁻¹ s⁻¹.

For a further experiment, the target named is T1, human PD-L1 ECD-His. The experiment in a line: BLI Octet RED96, biotinylated antibody on SA sensor, hPD-L1-His analyte, 1:1 fit. As for the experimental part: as §1, §2
As to B1, the Kd was 2460 pM, the off-rate constant (koff) came out at 0.000561 s⁻¹ and the kon came out at 221000 M⁻¹ s⁻¹.

Consider B2, for which the Kd was determined as 538 pM, the koff was determined as 0.000201 s⁻¹ and the association rate constant (kon) was found to be 419000 M⁻¹ s⁻¹.

B3 had a Kd of 772 pM, a koff of 0.000228 s⁻¹ and a kon of 307000 M⁻¹ s⁻¹.

The next experiment addresses T1, human PD-L1 ECD-His. Briefly: BLI Octet RED96, antibody on AHC anti-human-Fc sensor, hPD-L1-His analyte, 1:1 fit. The protocol: as §3, §2
In the case of B4, the dissociation constant Kd turned out to be 417 pM, the off-rate (koff) turned out to be 0.000162 s⁻¹ and the kon was 384000 M⁻¹ s⁻¹.

Turning to B5, the affinity, expressed as Kd, was 369 pM; the koff was 0.000151 s⁻¹; the kon stood at 415000 M⁻¹ s⁻¹.

In turn, B6 returned a Kd of 356 pM, a koff of 0.000176 s⁻¹ and a kon of 506000 M⁻¹ s⁻¹.

Regarding B2, the Kd stood at 619 pM, the koff is 0.000207 s⁻¹ and the kon came out at 328000 M⁻¹ s⁻¹.

Turning to B7, the Kd amounted to 439 pM, the koff turned out to be 0.000271 s⁻¹ and the on-rate (kon) turned out to be 612000 M⁻¹ s⁻¹.

Take B8: binding was put at a Kd of 395 pM, the koff was 0.000238 s⁻¹ and the kon is 600000 M⁻¹ s⁻¹.

A further experiment deals with T2, human PD-L1 on cells (PHA-activated human T cells); PD-L1-transfected CHO-S cells; A375 melanoma cells; … (human, UniProt Q9NZQ7 19-290).
T2 construct: whole, on cells; also called PD-L1 expressing T cells; PD-L1 expressing CHO-S cells
T2 sequence (Q9NZQ7 19-290): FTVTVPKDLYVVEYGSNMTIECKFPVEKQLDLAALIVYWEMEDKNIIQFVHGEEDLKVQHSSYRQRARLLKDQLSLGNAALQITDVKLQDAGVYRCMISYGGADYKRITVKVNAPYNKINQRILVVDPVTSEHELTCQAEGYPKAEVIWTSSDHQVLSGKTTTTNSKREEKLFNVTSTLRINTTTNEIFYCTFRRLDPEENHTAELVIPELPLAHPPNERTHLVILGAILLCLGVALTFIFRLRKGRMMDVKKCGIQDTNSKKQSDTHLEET
Briefly: flow cytometry on PD-L1 transfected CHO-S cells, anti-human IgG Fc-FITC, MFI. As for the experimental part:
Binding of tested de-glycosylated variants was assessed by incubating the PD-L1 expressing CHO-S cells (2E5 cells/well) with the serial-diluted antibodies in FACS buffer (PBS with 1% FBS) at 4° C. for 30 minutes. These cells were washed with flow buffer and then stained with anti-human IgG Fc-FITC (1:500×) at 4° C. for 30 minutes to detect antibody binding on the cell surface. Flow cytometric analyses were performed using CytoFlex (Beckman Coulter Inc.).
(In general: Flow cytometry measures light scatter and fluorescence of single cells or particles in a stream.)
As to B4, the “EC50 (read off the curve)” value was approximately 0.2 µg/mL.

With B5, the concentration for a half-maximal effect (EC50 (read off the curve)) was approximately 0.2 µg/mL.

As to B6, the “EC50 (read off the curve)” value was approximately 0.2 µg/mL.

Regarding B2, the half-maximal effective concentration (EC50 (read off the curve)) was approximately 0.2 µg/mL.

Regarding B7, the “EC50 (read off the curve)” value is approximately 0.2 µg/mL.

With B8, the “EC50 (read off the curve)” value is approximately 0.2 µg/mL.

For a further experiment, the target named is T3, mouse PD-L1 on B16-F10 melanoma cells (mouse, UniProt Q9EP73 19-290).
T3 construct: whole, on cells
T3 sequence (Q9EP73 19-290): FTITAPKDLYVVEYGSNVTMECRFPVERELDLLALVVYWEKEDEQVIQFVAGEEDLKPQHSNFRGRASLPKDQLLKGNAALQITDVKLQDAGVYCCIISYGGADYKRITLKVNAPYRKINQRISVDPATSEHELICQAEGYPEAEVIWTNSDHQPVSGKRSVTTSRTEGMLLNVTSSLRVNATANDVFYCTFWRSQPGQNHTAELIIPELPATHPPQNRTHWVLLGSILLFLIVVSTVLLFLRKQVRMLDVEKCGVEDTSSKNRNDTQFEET
Briefly: flow cytometry on mouse PD-L1 expressing B16-F10 melanoma cells, FITC-labeled anti-human IgG Fcγ, MFI.
Consider B1, for which the binding result is “no binding (tested: 5 µg/mL)”.

B2: the binding result is recorded as “no binding (tested: 5 µg/mL)”.

Another experiment addresses T2, human PD-L1 on cells (PHA-activated …). Briefly: flow cytometry on A375 human melanoma cells, biotin-labeled anti-human IgG Fcγ and streptavidin-PE, MFI.
Regarding B1, the “EC50 (read off the curve)” value was approximately 0.002 µg/mL.

For B2, the “EC50 (read off the curve)” value was approximately 0.01 µg/mL.

In the case of B3, the “EC50 (read off the curve)” value is approximately 0.001 µg/mL.

For the next experiment the target is unchanged. Briefly: flow cytometry on NCI-H292 human NSCLC cells, biotin-labeled anti-human IgG Fcγ and streptavidin-PE, MFI.
Consider B1, for which the concentration for a half-maximal effect (EC50 (read off the curve)) is approximately 0.01 µg/mL.

In the case of B2, the “EC50 (read off the curve)” value is approximately 0.02 µg/mL.

For B3, the “EC50 (read off the curve)” value is approximately 0.008 µg/mL.

The next experiment shares this target. The experiment in a line: flow cytometry on PHA-activated human T cells, biotin-labeled anti-human IgG Fcγ and streptavidin-PE, MFI.
Regarding B1, the “EC50 (read off the curve)” value was approximately 0.003 µg/mL.

On to B3, for which the “EC50 (read off the curve)” value was approximately 0.004 µg/mL.

For a further experiment, the target named is T4, recombinant cynomolgus monkey PD-L1_ECD Fc-fusion protein (Sino Biological Inc.) (cynomolgus monkey, UniProt G7PSE7 19-238).
T4 construct: Bought
T4 sequence (G7PSE7 entry or part of it limits assumed): as the sequence (Q9NZQ7 19-238) above, with A33T, A34S, S62N, R68Q, Q82R, F173L, T185A, T192I, H215L counted along it
Briefly: ELISA: cynomolgus monkey PD-L1_ECD/Fc coated (9 ng/well), peroxidase-labeled goat anti-human IgG F(ab)'2, TMB, OD450. As for the experimental part:
The recombinant cynomolgus monkey PD-L1_ECD Fc-fusion proteins were purchased from Sino Biological Inc. PD-L1_ECD/Fc (9 ng per well) were immobilized onto 96-well assay plat by incubating overnight at 4° C. Nonspecific binding sites were blocked using 5% skim milk in PBS for one hour at room temperature. After washing plates three times with PBST, indicated concentrations of anti-PD-L1 antibodies and HLX01 (negative control) were incubated with the immobilized proteins for one hour at room temperature. The plates were washed three times with PBST and then incubated for one hour at room temperature with peroxidase-labeled goat anti-human IgG F(ab)′2 (Jackson ImmunoResearch Laboratories) diluted 1/10,000 in PBS. After washing, plates were developed using TMB (eBioscience). The absorbance was read at the wavelength of 450 nm by Varioskan LUX microplate reader (Thermo Scientific).
HLX01 (anti-CD20 mAb) was used as the negative control.
On to B1, for which the half-maximal effective concentration (EC50 (read off the curve)) was approximately 0.03 µg/mL.

Regarding B2, the “EC50 (read off the curve)” value was approximately 0.05 µg/mL.

For B3, the “EC50 (read off the curve)” value is approximately 0.05 µg/mL.
